Results reported in the supplement of paper PMC9112550, “Optimization of the antimicrobial peptide Bac7 by deep mutational scanning” (BMC Biology, 2022).

Test system: Escherichia coli TOP10
Assay: shrunken log2 fold change of peptide-encoding DNA abundance (4.5 h post-induction vs induction); higher = less antimicrobial activity (less host growth inhibition)
Details: time post-induction: 4.5 h; library: site-saturation at positions 5, 18, 19, 20
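Further: peptides expressed intracellularly from a pBAD plasmid library in pooled LB shake-flask culture, induced with 0.3% L-arabinose, DNA abundance read by NGS, three biological replicates, DESeq2 with apeglm shrinkage.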

Sequence	shrunken log2 fold change
RRIRQRPPRLPRPRPRPRNSPRP	-0.0108
RRIRQRPPRLPRPRPRPRQPPRP	0.622
RRIRQRPPRLPRPRPRPRTQPRP	0.0198
RRIRQRPPRLPRPRPRPRTSPRP	0.131
RRIRQRPPRLPRPRPRPRVCPRP	0.303
RRIRQRPPRLPRPRPRPRVKPRP	0.103
RRIRQRPPRLPRPRPRPSARPRP	-0.00609
RRIRQRPPRLPRPRPRPSCCPRP	-0.408
RRIRQRPPRLPRPRPRPSDFPRP	-0.128
RRIRQRPPRLPRPRPRPSECPRP	-0.0674
RRIRQRPPRLPRPRPRPSEEPRP	-0.226
RRIRQRPPRLPRPRPRPSGAPRP	0.054
RRIRQRPPRLPRPRPRPSGNPRP	-0.323
RRIRQRPPRLPRPRPRPSGWPRP	-0.112
RRIRQRPPRLPRPRPRPSIVPRP	-0.323
RRIRQRPPRLPRPRPRPSLIPRP	-0.275
RRIRQRPPRLPRPRPRPSNWPRP	-0.227
RRIRQRPPRLPRPRPRPSPSPRP	-0.144
RRIRQRPPRLPRPRPRPSQDPRP	-0.0378
RRIRQRPPRLPRPRPRPSRGPRP	0.269
RRIRQRPPRLPRPRPRPSSCPRP	0.0394
RRIRQRPPRLPRPRPRPSTFPRP	-0.176
RRIRQRPPRLPRPRPRPSTLPRP	-0.319
RRIRQRPPRLPRPRPRPSVHPRP	-0.276
RRIRQRPPRLPRPRPRPSVYPRP	-0.643

Sequence	shrunken log2 fold change
RRIRQRPPRLPRPRPRPSWFPRP	-0.323
RRIRQRPPRLPRPRPRPSYCPRP	0.103
RRIRQRPPRLPRPRPRPTDGPRP	0.178
RRIRQRPPRLPRPRPRPTDMPRP	-0.0372
RRIRQRPPRLPRPRPRPTDQPRP	0.411
RRIRQRPPRLPRPRPRPTEHPRP	-0.00172
RRIRQRPPRLPRPRPRPTGAPRP	0.412
RRIRQRPPRLPRPRPRPTKAPRP	0.0785
RRIRQRPPRLPRPRPRPTKVPRP	-0.0676
RRIRQRPPRLPRPRPRPTKYPRP	-0.257
RRIRQRPPRLPRPRPRPTNCPRP	-0.33
RRIRQRPPRLPRPRPRPTPVPRP	0.286
RRIRQRPPRLPRPRPRPTQFPRP	0.14
RRIRQRPPRLPRPRPRPTQHPRP	0.195
RRIRQRPPRLPRPRPRPTQRPRP	0.548
RRIRQRPPRLPRPRPRPTRFPRP	0.04
RRIRQRPPRLPRPRPRPTRNPRP	0.185
RRIRQRPPRLPRPRPRPTRRPRP	0.556
RRIRQRPPRLPRPRPRPTSDPRP	-0.358
RRIRQRPPRLPRPRPRPTVHPRP	-0.367
RRIRQRPPRLPRPRPRPTVTPRP	-0.47
RRIRQRPPRLPRPRPRPVCYPRP	-0.636
RRIRQRPPRLPRPRPRPVDDPRP	-0.0578
RRIRQRPPRLPRPRPRPVDKPRP	-0.0881
RRIRQRPPRLPRPRPRPVDPPRP	-0.0233

Sequence	shrunken log2 fold change
RRIRQRPPRLPRPRPRPVEYPRP	-0.434
RRIRQRPPRLPRPRPRPVFKPRP	-0.0447
RRIRQRPPRLPRPRPRPVGLPRP	0.35
RRIRQRPPRLPRPRPRPVGRPRP	0.336
RRIRQRPPRLPRPRPRPVLHPRP	-0.149
RRIRQRPPRLPRPRPRPVMNPRP	0.0954
RRIRQRPPRLPRPRPRPVNEPRP	-0.325
RRIRQRPPRLPRPRPRPVPVPRP	-0.228
RRIRQRPPRLPRPRPRPVQWPRP	-0.03
RRIRQRPPRLPRPRPRPVRFPRP	0.728
RRIRQRPPRLPRPRPRPVRTPRP	0.0701
RRIRQRPPRLPRPRPRPVTEPRP	-0.35
RRIRQRPPRLPRPRPRPVTHPRP	4.01
RRIRQRPPRLPRPRPRPVVGPRP	0.101
RRIRQRPPRLPRPRPRPVVRPRP	0.169
RRIRQRPPRLPRPRPRPVYCPRP	-0.155
RRIRQRPPRLPRPRPRPVYSPRP	-0.0563
RRIRQRPPRLPRPRPRPWAAPRP	0.0922
RRIRQRPPRLPRPRPRPWCAPRP	0.0231
RRIRQRPPRLPRPRPRPWFCPRP	-0.282
RRIRQRPPRLPRPRPRPWFQPRP	-0.0867
RRIRQRPPRLPRPRPRPWHLPRP	-0.0241
RRIRQRPPRLPRPRPRPWIAPRP	-0.161
RRIRQRPPRLPRPRPRPWIGPRP	-0.013
RRIRQRPPRLPRPRPRPWIWPRP	0.231

Sequence	shrunken log2 fold change
RRIRQRPPRLPRPRPRPWMEPRP	-3.98e-05
RRIRQRPPRLPRPRPRPWQDPRP	0.07
RRIRQRPPRLPRPRPRPWQGPRP	-0.137
RRIRQRPPRLPRPRPRPWQIPRP	-0.0838
RRIRQRPPRLPRPRPRPWQLPRP	-0.0199
RRIRQRPPRLPRPRPRPWRGPRP	-0.0544
RRIRQRPPRLPRPRPRPWRTPRP	-0.152
RRIRQRPPRLPRPRPRPWSMPRP	-0.0469
RRIRQRPPRLPRPRPRPWSRPRP	0.00812
RRIRQRPPRLPRPRPRPWVQPRP	-0.0131
RRIRQRPPRLPRPRPRPWWTPRP	-0.01
RRIRQRPPRLPRPRPRPWYDPRP	-0.138
RRIRQRPPRLPRPRPRPWYEPRP	0.0185
RRIRQRPPRLPRPRPRPWYSPRP	-0.0193
RRIRQRPPRLPRPRPRPYANPRP	-0.264
RRIRQRPPRLPRPRPRPYCYPRP	-0.198
RRIRQRPPRLPRPRPRPYDTPRP	-0.307
RRIRQRPPRLPRPRPRPYEQPRP	-0.609
RRIRQRPPRLPRPRPRPYEVPRP	-0.31
RRIRQRPPRLPRPRPRPYFTPRP	-0.818
RRIRQRPPRLPRPRPRPYGEPRP	-0.0137
RRIRQRPPRLPRPRPRPYIPPRP	-0.619
RRIRQRPPRLPRPRPRPYKHPRP	-0.161
RRIRQRPPRLPRPRPRPYKNPRP	-1.02
RRIRQRPPRLPRPRPRPYLKPRP	0.00123

Sequence	shrunken log2 fold change
RRIRQRPPRLPRPRPRPYLPPRP	-0.0206
RRIRQRPPRLPRPRPRPYLVPRP	-0.551
RRIRQRPPRLPRPRPRPYPEPRP	-0.0761
RRIRQRPPRLPRPRPRPYPMPRP	0.0253
RRIRQRPPRLPRPRPRPYQSPRP	-0.176
RRIRQRPPRLPRPRPRPYRWPRP	-0.0412
RRIRQRPPRLPRPRPRPYSCPRP	0.0133
RRIRQRPPRLPRPRPRPYSFPRP	-0.141
RRIRQRPPRLPRPRPRPYSLPRP	-0.197
RRIRQRPPRLPRPRPRPYSPPRP	-0.13
RRIRQRPPRLPRPRPRPYVIPRP	0.0316
RRIRQRPPRLPRPRPRPYVTPRP	-0.253
RRIRQRPPRLPRPRPRPYVVPRP	-0.102
RRIRQRPPRLPRPRPRPYWTPRP	-0.496
RRIRRRPPRLPRPRPRPACTPRP	0.181
RRIRRRPPRLPRPRPRPADEPRP	2.06
RRIRRRPPRLPRPRPRPADHPRP	-0.115
RRIRRRPPRLPRPRPRPAEKPRP	0.225
RRIRRRPPRLPRPRPRPAESPRP	0.256
RRIRRRPPRLPRPRPRPAEVPRP	0.219
RRIRRRPPRLPRPRPRPAFHPRP	0.083
RRIRRRPPRLPRPRPRPAFTPRP	0.118
RRIRRRPPRLPRPRPRPAGMPRP	0.102
RRIRRRPPRLPRPRPRPAGWPRP	0.593
RRIRRRPPRLPRPRPRPAHEPRP	0.598

Sequence	shrunken log2 fold change
RRIRRRPPRLPRPRPRPAHWPRP	0.672
RRIRRRPPRLPRPRPRPAKHPRP	0.219
RRIRRRPPRLPRPRPRPAMMPRP	0.163
RRIRRRPPRLPRPRPRPANHPRP	0.097
RRIRRRPPRLPRPRPRPANMPRP	-0.0342
RRIRRRPPRLPRPRPRPAPCPRP	0.884
RRIRRRPPRLPRPRPRPASQPRP	0.0789
RRIRRRPPRLPRPRPRPATSPRP	0.0892
RRIRRRPPRLPRPRPRPAVKPRP	0.0474
RRIRRRPPRLPRPRPRPAWEPRP	0.301
RRIRRRPPRLPRPRPRPAWPPRP	0.446
RRIRRRPPRLPRPRPRPCAEPRP	0.393
RRIRRRPPRLPRPRPRPCAGPRP	0.357
RRIRRRPPRLPRPRPRPCCLPRP	0.0396
RRIRRRPPRLPRPRPRPCDSPRP	-0.396
RRIRRRPPRLPRPRPRPCDYPRP	-0.489
RRIRRRPPRLPRPRPRPCEKPRP	-0.0914
RRIRRRPPRLPRPRPRPCFRPRP	-0.00559
RRIRRRPPRLPRPRPRPCGLPRP	0.15
RRIRRRPPRLPRPRPRPCGQPRP	0.205
RRIRRRPPRLPRPRPRPCHFPRP	-0.181
RRIRRRPPRLPRPRPRPCHMPRP	-0.237
RRIRRRPPRLPRPRPRPCHQPRP	-0.172
RRIRRRPPRLPRPRPRPCIEPRP	0.131
RRIRRRPPRLPRPRPRPCIKPRP	-0.0974
